From the nanobody polyreactivity screen of Harvey et al. (2022) come the findings set out here.

This data set in a line: yeast display, Sf9 membrane polyspecificity reagent, FACS + sequencing; frameworks hold sequencing errors. The method, boiled down: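 Polyreactivity labels are assigned by the sorting gate from which each nanobody was recovered. The gates were low and high (top ~1%), set on anti-HA fluorescence for expression and streptavidin fluorescence for reagent binding. Before sorting, galactose-induced (36–48 hours) yeast display cells were stained for 1 hour at 4 °C with 10% biotinylated, detergent-solubilized Sf9 membrane reagent.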
For the sequence “QVQLVESGGGLVQAGGSLRLSCHASGFIFGYKAMGWYRQAPGKERELVAAISSGGSTYYADSVKGRFTISRDNAKYTVYLQMKSLKPEDTAVFYCATVFVVLPPTRFDSWGQGTQVTVSS”, the “polyreactivity (PSR sort gate)” value is “low polyreactivity”.

“QVQLVESGGGLVQAGGSLRLSCPASGFIYPVYAMGWSRQAPGKERELVAAISRRGGSTYYADSVKGRFTISRDNAKNTVYLQMNSLKPDDTAVYYCAKDGRGDPVKDDYWGLGTQVTVSS”: the “polyreactivity (PSR sort gate)” value is “high polyreactivity”.

With “QVQLVESGGGLVQAGGSLRLSCPASGFTFVRYAMGWYRQAPGKERELVAAISSSGSSTYYADSVKGRFTISRDNAKYTVYLQMNSLKPEDSAVYYCNARAGRGEDYWGQGTQVTVSS”, the “polyreactivity (PSR sort gate)” value is given as “low polyreactivity”.

“QVQLVESGGGLVQAGGSLRLSCPASGGTFYVYAMGGYRQEPGKERELVAAISTSDGITYYADSVKGRFTISRDNAKNNVYLQMNSLKPEDTAVYYCAAVYAGVGSPVKRDYWGLGTQVTVSS”: the “polyreactivity (PSR sort gate)” value is on record as “high polyreactivity”.

With “QVQLVESGGGLVQAGGSLRLSCPASGRIYDYNGMRWYRQAPRKERELVAAITSSGSRTYYADSVKGRFTISRDNAKNTVYFQMNSLKPEDTAVYYCARGGGRRKGLVDYWGQGTQVSVSS”, the “polyreactivity (PSR sort gate)” value is “low polyreactivity”.

“QVQLVESGGGLVQAGGSLRLSCPASGRTFHYYTLGWYRQSPGKERELVARISLGVGSTYYADSVKGRFTISRDIAKNTVDLQMNSLKPEDTAVYYCNAVWYKSVVKGVYGRVDWGQGTQVTVSS”: the “polyreactivity (PSR sort gate)” value is “low polyreactivity”.

With “QVQLVESGGGLVQAGGSLRLSCPASGRTFKYYAMGCYRQSPGKESELVAAITSTGGSTYYADSVKGRFTISRDNAMNTVYLQMNSLKPEDTAVYYCNRYTQYRDRSDNHWGQGTQVTVSS”, the “polyreactivity (PSR sort gate)” value is “high polyreactivity”.

Turning to “QVQLVESGGGLVQAGGSLRLSCPASGRTFYKYAMGWYRQAPGKEREFVADISSRGGSTYYADSVKGRFTISRDNAKNTVYLQMNSLKPEDTAVYYCAKRDRAAARAYYYWGQGTQVTVSS”, the “polyreactivity (PSR sort gate)” value is reported as “high polyreactivity”.

On to “QVQLVESGGGLVQAGGSLRLSCPASGRTYASYAMGWYRQAPGKDRELVAAITSSGGSTYYADSVKGRFTISRDNAKNTVYLQMNSLKPEYTAVYYCAARSRYRGDSWGQGTQVTVSS”, for which the “polyreactivity (PSR sort gate)” value was “high polyreactivity”.

Take “QVQLVESGGGLVQAGGSLRLSCPASGSIFQYYAMGWYRQAPGKERELVAAISSGGRTNYADSVKGRFTISRDNAKNTVYLQMNSLKPEATAVYYCAAARYYYQVYRWEYDYWGQGTQVTVSS”: the “polyreactivity (PSR sort gate)” value is reported as “high polyreactivity”.

Consider “QVQLVESGGGLVQAGGSLRLSCPASGSIFRGYGMGWSRQAPGKERELVAAMSSSGGTYYADSVKGRFTISRDNAKKTVYLQMNSLKPEDTAVYYCNARVRTQQRWVDYWGQGTQVTVSS”, for which the “polyreactivity (PSR sort gate)” value is reported as “high polyreactivity”.

For the sequence “QVQLVESGGGLVQAGGSLRLSCPASGSIIYTNDMGWYRQEPGKEREMVAAISYGGTTTYADSVKGRFTISRDNAKNTVYLQMNSLKPEDTAVYYCNADWLYYGYWGYGHIWYDFWGQGTQVTVSS”, the “polyreactivity (PSR sort gate)” value was “low polyreactivity”.

For the sequence “QVQLVESGGGLVQAGGSLRLSCPASGSTIPVNAMVWYRQAPGKERELVAAIRSSTGRTYYADSVKGRFTTSRDNAKNTVYLQMNSLKPEDTAVYYCAADYRYNRGITSNKDYDYWGQGTQVTVSS”, the “polyreactivity (PSR sort gate)” value is on record as “low polyreactivity”.

On to “QVQLVESGGGLVQAGGSLRLSCPATGFTFSVYVMAWYRLAPGKERELVAAISSGGDTTYADSVKGRFTISRDNAKNTVYLQMNSLKPEDTAVYYCAAYRVILYYLYDYWGQGTQVTVSS”, for which the “polyreactivity (PSR sort gate)” value is “low polyreactivity”.

Consider “QVQLVESGGGLVQAGGSLRLSCPAYGSIFEGHGMGWYRQAPGKEREMVAAITFRSGSTYYADSVKWRFTISRDNAKNTVYLQINSLKPDDTAVYYCAADEYYQVSAYDYWGQGTQVTVSS”, for which the “polyreactivity (PSR sort gate)” value was “low polyreactivity”.

In the case of “QVQLVESGGGLVQAGGSLRLSCPAYGSIFIGNAMGWYRQAPGKERELVAVISKGGGRTYYADSVKGRFTISRDNAKNTVYLQMNSLKPEDTAVYYCNTRNPDSGDYWGQGTQVTVSS”, the “polyreactivity (PSR sort gate)” value is reported as “high polyreactivity”.

On to “QVQLVESGGGLVQAGGSLRLSCPDSGRIFFLYAMGWYRQAPGKERELVAAITKSGGSTYADSVKGRFTISRDNAKNTVFLQMNSLIPEDTAVYYCAADLFTDLYDSWGQGTQVTVSS”, for which the “polyreactivity (PSR sort gate)” value was “low polyreactivity”.

As to “QVQLVESGGGLVQAGGSLRLSCSASGFIFSRYVMGWYRKAPGKEREFVAVISYRGGSTYYADSVKGRFTFSRDNAKNTVYLQMNSLKPEDTAVYYCNADTIPDGEDRYDYWGQGTQVTVSS”, the “polyreactivity (PSR sort gate)” value was “low polyreactivity”.

Consider “QVQLVESGGGLVQAGGSLRLSCSASGFTFNYNAMGWYRQAPGKERELVASITRSGGRTYYADSVKGRFTISRDNAKITVYLQMNSLKPEDTAVYYCAAEVWYSLSYRVYGGYDFWGQGTQVTVSS”, for which the “polyreactivity (PSR sort gate)” value was “high polyreactivity”.

Take “QVQLVESGGGLVQAGGSLRLSCSASGIIFVRNAMGWYRQAPGKERELVAAITWRGSTYYADSVKGRFTISRDNAKNTVYLQMNSLKPEDTAVYYCAAVKPHYTSFRDYYWGQGTQVTVSS”: the “polyreactivity (PSR sort gate)” value is listed as “high polyreactivity”.

As for “QVQLVESGGGLVQAGGSLRLSCSASGLIFGNYAMGWYRQAPGKERELVAAITSTGITYYADSVKGRFTISRDNAKNTVYLQMNSLKPEDTAVYYCAAASRFHPDRGGYWGQGTQVTVSS”, the “polyreactivity (PSR sort gate)” value is recorded as “low polyreactivity”.

As to “QVQLVESGGGLVQAGGSLRLSCSASGLIFGNYGMGWYRQAPGKERELVAVITDDDSTTYADSVKGRFTISRDNAKNTFYLQMNSLKPEDTAVYYCNADNLLGRFDSWGQGTLVTVSS”, the “polyreactivity (PSR sort gate)” value was “low polyreactivity”.

For the sequence “QVQLVESGGGLVQAGGSLRLSCSASGLIFSTYAMGWYRQAPGKVRELVAAISGTGSTYYADSVKGRFTISRDNAKNTVYLQMNRLKPEDTSVYYCAAGATLWLLGLKMGYWGQGTQVTVSS”, the “polyreactivity (PSR sort gate)” value was “low polyreactivity”.

Consider “QVQLVESGGGLVQAGGSLRLSCSASGLIYYYYTMGWYRPPPGKERELVAVISSSGGSTYYADSVKGRFTISRDNAKNTVYLQMNSLKPEDTAVYYCAAVYHFQYGAYDYWGQGTQGTVSS”, for which the “polyreactivity (PSR sort gate)” value is “high polyreactivity”.

Turning to “QVQLVESGGGLVQAGGSLRLSCSASGLTFTKYAMGWYRQAPGKEREFVATITSGGSTNYADSVKGRFTISRDNAKNTVYLQMNSLKPEDTAVYYCNRDNYKWPYWEFDYWGQGTQVTVSS”, the “polyreactivity (PSR sort gate)” value is on record as “high polyreactivity”.

Take “QVQLVESGGGLVQAGGSLRLSCSASGRIFPRNAMGWYRQAPGKERHLVAAISQSGTSTYYADSVKGRFTISRDNAQKTVYLQMNSLKREDTAVYYCAASGWDHVIVEYDYWGEGTQVTVSS”: the “polyreactivity (PSR sort gate)” value is on record as “low polyreactivity”.

On to “QVQLVESGGGLVQAGGSLRLSCSASGRIFPWNTMGWYRQAPGKERELVAGITSGGSTNYADSVKGRFTISRDNAKNTVYLQMNSLKPEDTAVYYCAARGYYWYISGVYEYEYWGQGTQVTVSS”, for which the “polyreactivity (PSR sort gate)” value is recorded as “low polyreactivity”.

On to “QVQLVESGGGLVQAGGSLRLSCSASGRTFDGYAMVWYRQAPGKEREMVASITRGGGSTYYADSVKGRFTISRDNAKNTVYLQMNSLKPEDTAVYYCATSDRQVKYDYWGQGTQVTVSS”, for which the “polyreactivity (PSR sort gate)” value is given as “low polyreactivity”.

For the sequence “QVQLVESGGGLVQAGGSLRLSCSASGRTFLYDMGWYTHATGKELELVAAISRGGSTSYADSVKGRFTISRDNAKNTVYLQMNSLKPEDTAVYYCATRGLVGYYSYYYWGQGTQVTVSS”, the “polyreactivity (PSR sort gate)” value is recorded as “high polyreactivity”.

On to “QVQLVESGGGLVQAGGSLRLSCSASGRTFSKYAMAWYRQAPGKERELVAAISKRGGSTSYADSVKGRFTISRDNAKNTVYLQMNSLKREDTAVYYCAATYTYVVPEYDYWGHGTQVTVSS”, for which the “polyreactivity (PSR sort gate)” value is “high polyreactivity”.

For the sequence “QVQLVESGGGLVQAGGSLRLSCSASGRTFSWYAMGWYRQAPGKERELVAAISWSGGSTYYADSVKGRFTISRDNAKNTVYLQMNSLKPEDTAVYYCNAVGRPLRGYDYWGQGTQVTVSS”, the “polyreactivity (PSR sort gate)” value is reported as “high polyreactivity”.

In the case of “QVQLVESGGGLVQAGGSLRLSCSASGRTFTPYAMGWYRQAPGKEREFVAAISIVGRTKYADSVKGRFTISPDNAKNTFYFQMNSLKPEDTAVYYCNAQDSRDRKFYWGYTRGHWGQGTQVTVSS”, the “polyreactivity (PSR sort gate)” value is “low polyreactivity”.

For the sequence “QVQLVESGGGLVQAGGSLRLSCSASGRTFYGNAMGWYRQAPGKERELVAAISWSGGSTYYADSVKGRFPISRDNAKNTVYLQMISLKPEYTAVYYCNADYFAWDLMYYWGQGTQVTVSS”, the “polyreactivity (PSR sort gate)” value is reported as “low polyreactivity”.

As to “QVQLVESGGGLVQAGGSLRLSCSASGRTSDYYAMGWYRQAPGKERELVAAITSGGSTYYADSVKGRFTISRDNAKITVYFQMNSLKPEDTAVYYCAATWYWGWVFSYTSFDYWGLGTQVTVSS”, the “polyreactivity (PSR sort gate)” value was “low polyreactivity”.

As to “QVQLVESGGGLVQAGGSLRLSCSASGSIFAIYTMGWYRQAPGTERELVAAISSRGDSTYYADSVKGRFTISRDNAKNTVYLQMNSLKPEDTAVYYCATRGDGVLGRRGYYWGQGTQVTVSS”, the “polyreactivity (PSR sort gate)” value is on record as “high polyreactivity”.

As for “QVQLVESGGGLVQAGGSLRLSCSASGSIFASNTMGWYRQAPGKERELVAGITKIGSSTYYADSVKGRFTISRDNAKNTFYLQMKSLKPEDTAVSYCKAYGPNIYSSRYDYWVQGTQVTVSS”, the “polyreactivity (PSR sort gate)” value is “low polyreactivity”.

For the sequence “QVQLVESGGGLVQAGGSLRLSCSASGSIFAWYGRGWYRQSPGKESELVAAITSTGSTYYADSVKGRFTISRDNAKNTVYLQMTSLKPEDTAVYYCNAYYVYLWRPGVYWGQGTQVTVSS”, the “polyreactivity (PSR sort gate)” value is “low polyreactivity”.

Take “QVQLVESGGGLVQAGGSLRLSCSASGSIFSYYTMGWYRQAPGKERELVAAITGSGGRTYYADSVKGRFTISRDNAKNTVYLQMNSLKPEDTAVYYCNADRHYVPYYSRPRYIPYDYWGQGTQVTVSS”: the “polyreactivity (PSR sort gate)” value is given as “high polyreactivity”.

On to “QVQLVESGGGLVQAGGSLRLSCSASGSILVRYAMGWYRQSPGKERELVAAITSGGSTYADSVKGRFTISRDNAKNTVYLQMNSLKPEDTAVYYCARDYFNREAFDYWGQGTQVTVSS”, for which the “polyreactivity (PSR sort gate)” value was “low polyreactivity”.

For the sequence “QVQLVESGGGLVQAGGSLRLSCSASGSTFEKNAMGWYRQAPGKERELVAAISNGVSTYYADSVKGRFTNSRDNAKNTVYLKINSLKPEDTAVYYCAAVLFFGAETVYYDKFDYWGQGTQVTVSS”, the “polyreactivity (PSR sort gate)” value is on record as “low polyreactivity”.

Consider “QVQLVESGGGLVQAGGSLRLSCSASGSTFESNAMGWYRQAPGKERELVASISGSGGSTFYADSVKGRFTISRDNAKNTVYLQMNSLKPEDTAVYYCAAYKEPYYEEYGYWGQGTQVTVSS”, for which the “polyreactivity (PSR sort gate)” value was “low polyreactivity”.
